The source of these data is patent US20240018228A1 (University of Texas, published 2024).

Test [1] addresses T1, CCL21 pep 2.
T1 construct: One of the two peptides behind r1 of the first reading
T1 peptide: KYSQRKIPAKVVR
Kind of test: slot blot; each lane holds only CCL21, pep 1 or pep 2 in the amount printed, probed with the monoclonal antibody (the legend calls it a competition).

Test [2] deals with T2, CCL21 pep 1.
T2 construct: One of the two peptides behind r1 of the first reading
T2 peptide: SLLILVLAFGIPR
The test is described as above.

Test [3] deals with T3, mouse CCL21 (mouse, UniProt P84444 24-133).
T3 construct: also called murine CCL21
T3 sequence (looked up): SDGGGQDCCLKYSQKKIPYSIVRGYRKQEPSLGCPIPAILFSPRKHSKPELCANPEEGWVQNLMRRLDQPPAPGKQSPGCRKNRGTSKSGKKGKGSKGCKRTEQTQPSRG
The test is described as follows: slot blot of human and mouse CCL21 protein probed with the monoclonal antibody.

Test [4] concerns the target T4, human CCL21 (chemokine (C-C motif) ligand 21) (human, UniProt O00585 24-134).
T4 construct: The same entry is used for native CCL21 stained in tissue; also called hCCL21; rhCCL21
T4 sequence (looked up): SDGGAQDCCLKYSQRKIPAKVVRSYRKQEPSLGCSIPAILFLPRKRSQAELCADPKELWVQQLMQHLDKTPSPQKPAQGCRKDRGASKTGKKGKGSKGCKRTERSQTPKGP
Kind of test: western blot of human CCL21 protein probed with hybridoma supernatant ('Supernatent BalbC (1:10)'). On the technique in general: Immunoblotting shows a protein as a band on a membrane.

For test [5], the target named is T5, human chemokine CCL19 (human, UniProt Q99731 22-98).
T5 sequence (looked up): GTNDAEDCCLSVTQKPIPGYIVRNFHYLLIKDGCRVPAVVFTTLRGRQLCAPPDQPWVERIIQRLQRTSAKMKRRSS
The test is described as follows: western blot of human CCL19 and human CCL21 probed with the monoclonal antibody.

B1: anti-CCL21 murine monoclonal antibody Clone #8 (C8) (antibody, V domains shown)
VH: EVQLQQSGAEIVRSGASVRLSCTASGFNIKDFYLNWVKQRPEQGLDWIGWIDPENGDTEYAPKFQGKATMTADTSSNTIYLHLSSLTSEDTAVYYCNAFDYDYWGQGTTLTVSS
VL: DIQMNQSPSSLSASLGDTVTITCHASQNINVWLSWYQQKPGNIPKLLIYKASNLHTGVPSRFSGSGSGTGFTLTISSLHPEDIATYYCHQGHSFPLTFGAGTKLELK
notes: Mouse monoclonal from immunized BALB/C mice; also called anti-CCL21 C8
Regarding B1, the binding result in test [1] is given as “no binding (tested: 1.0 µg)”; in test [2], “binds”; in test [3], “no binding (tested: 1.0 µg)”; in test [4], “binds”; in test [5] it was “no binding (tested: 100 ng)”.
